Reference: the supplement of paper PMC9170038

Tested on: MS2 coat protein
Assay: apparent KD of MS2 coat protein; designed switch direction (-1 OFF switch, 1 ON switch): -1; higher = weaker reporter binding
Summary of the method: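 Normalised cluster fluorescence was curve-fitted, and each design's median over clusters is its apparent KD. Before this, SNAP-549-labelled MS2 coat protein was titrated from 0.7 or 1.5 nM, doubling to 3 µM, over RNA switches transcribed on Illumina chips by stalled E. coli RNA polymerase. Titrations had no input, 200 uM small-molecule ligand, or an oligonucleotide input, and steps lasted 0.8–1.5 h (lowest) to 10–20 min (highest).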

[1] = input ligand: microRNA oligo, concentration not stated
[2] = Eterna round: R95, input ligand: FMN 200 uM
[3] = Eterna round: R95, input ligand: microRNA oligo, concentration not stated
[4] = Eterna round: R95, input ligand: none

## ACAUGUCAUCGAGGAUAUUGCACACAUGAGGAUCACCCAUGUAUUCGGUUGCUCUCGCGUGAGUUCGAGAAGGCGAUGUACAUU [Ex NG2 #84] (Eterna round: R96, puzzle: Exclusion NG 2)
Input ligand: FMN 200 uM
  apparent KD of MS2 coat protein: 276 nM
[1]
  apparent KD of MS2 coat protein: 36.6 nM
Input ligand: none
  apparent KD of MS2 coat protein: 48.9 nM

## GAAAAGGUAGGAUAUACGAAAAAAAAGGGUAGAAAAAAAACACAUGAGGAUCACCCAUGUAGAAGGACCAAAAG [Mat - Exclusion 2 - Tesla mod - D30] (Eterna round: R96, puzzle: Exclusion 2)
[1]
  apparent KD of MS2 coat protein: 25.3 nM

## GGAUUGUCAGGAUAUCUUAUACUUCAUAAGUGAGGAUAAAUAGAGAAGGGACAUGAGGAUCACCCAUGUAAUAA [Exclusion 4 S1] (Eterna round: R97, puzzle: Exclusion 4)
Input ligand: FMN 200 uM
  apparent KD of MS2 coat protein: 152 nM
Input ligand: none
  apparent KD of MS2 coat protein: 36.8 nM

## GUCGCCAGUGUCAGGAUAUGAUGGCCUCGACGCCGUUAGAAGGGACAUGAGGAUCACCCAUGUAACAAGCGACG [Eternabot (Original) Solution 42] (Eterna round: R97, puzzle: Brourd's mod of Exclusion 4)
Input ligand: FMN 200 uM
  apparent KD of MS2 coat protein: 31.3 nM
Input ligand: none
  apparent KD of MS2 coat protein: 27.8 nM

## CUGCCGAGAGGAUAUACUAAGCGAAGAGCCUCAUAAAAGUUACAUGAGGAUCACCCAUGUAGAAGGCUUGGGAG [Eternabot (Original) Solution 38] (Eterna round: R97, puzzle: Exclusion 2)
Input ligand: FMN 200 uM
  apparent KD of MS2 coat protein: 104 nM
Input ligand: none
  apparent KD of MS2 coat protein: 54.4 nM

## CCCUAGUAUGUAGGAUAUCGGUCAGUUUCUGAUCGAGAAGGACAUGAGGAUCACCCAUGUAAAACGUCCGGUUUCUGGAUAGGG [JL ENG1 3.56] (Eterna round: R96, puzzle: Exclusion NG 1)
Input ligand: FMN 200 uM
  apparent KD of MS2 coat protein: 73.2 nM
[1]
  apparent KD of MS2 coat protein: 17 nM
Input ligand: none
  apparent KD of MS2 coat protein: 24.6 nM

## CAAAAGCUAGGAUAUACACAAAACGCCUGCAUGCAAACAUCACAUGAGGAUCACCCAUGUAGAAGGAGCGGAAA [EX2 A.21] (Eterna round: R97, puzzle: Exclusion 2)
Input ligand: FMN 200 uM
  apparent KD of MS2 coat protein: 22.1 nM
Input ligand: none
  apparent KD of MS2 coat protein: 19.1 nM

## AUGUUACAUGAGGAUCACCCAUGUGAGGAUAUGAGUCAGUCACGGUGACGUGGCUGACUCAGAAGGCACUAUGG [JL-ex1-4.39 salish99 mod] (Eterna round: R97, puzzle: Exclusion 1)
Input ligand: FMN 200 uM
  apparent KD of MS2 coat protein: 146 nM
Input ligand: none
  apparent KD of MS2 coat protein: 279 nM

## UUUUUCGAACAAGCUACGUACAUGAGGAUCACCCAUGUUGGUAGAUUUGAGUAGGUUUGGAUGGAAGCUCGUCUUAU [JR_SV3TOV1_Sub083] (puzzle: Sensor v3, turn-off variant 1)
[2]
  apparent KD of MS2 coat protein: 19.2 nM
[3]
  apparent KD of MS2 coat protein: 44.5 nM
[4]
  apparent KD of MS2 coat protein: 21.4 nM

## GGUGCGUAUGUGAGGAUAUGCUGGUCCUUGGCUCGGCAGAAGGCACAUGAGGAUCACCCAUGUGGUGUCGUACU [salish99_Bmod_ex4_068] (puzzle: Brourd's mod of Exclusion 4)
[3]
  apparent KD of MS2 coat protein: 96.8 nM

## UGGACACCAGUAGGAUAUGUAGGAUAUGUUGUUGAGGAUCACCCAACAAAUUAAACGACAGAAGGACAGAAGGACUAUUAUCCU [pwkr exNG2 2xFMN 1xF5.1] (Eterna round: R96, puzzle: Exclusion NG 2)
Input ligand: FMN 200 uM
  apparent KD of MS2 coat protein: 52.5 nM
[1]
  apparent KD of MS2 coat protein: 57.8 nM
Input ligand: none
  apparent KD of MS2 coat protein: 60.8 nM

## UAUAUAUAGUAAGGAUAUGUAUAUAUUUAAUAAACAGAAGGUACUGACAUGAGGAUCACCCAUGUUUUAGUGUGGGCAUGUAGA [JMF's solution 63] (Eterna round: R96, puzzle: Exclusion NG 1)
[1]
  apparent KD of MS2 coat protein: 59.9 nM

## AAUUAUUAUUGAGGAUAUCGUAUUGAAACAAUACGAGAAGGCGGUAUAAACAUGAGGAUCACCCAUGUGAGCCUGAUGCUUAUG [Ex NG1 #99] (Eterna round: R96, puzzle: Exclusion NG 1)
[1]
  apparent KD of MS2 coat protein: 27.5 nM

## CUAGUAUAUCAGGAUAUGAUUUUAUAUAGUUGAUCAGAAGGGAUAACAUGAGGAUCACCCAUGUUAAGGAGUGA [JR_Ex6_Sub042] (Eterna round: R97, puzzle: Exclusion 6)
Input ligand: FMN 200 uM
  apparent KD of MS2 coat protein: 99.2 nM
Input ligand: none
  apparent KD of MS2 coat protein: 38.7 nM

## UUCGUGCAGCAAAGCUGUACGCGUACAUGAGGAUCACCCAUGUAGGAUAUGGUAGGCAAAGCUUACUAGAAGGAUAUGGUGAGC [Mat - Exclusion NG 3 - Mod of JL - D80] (Eterna round: R96, puzzle: Exclusion NG 3)
Input ligand: FMN 200 uM
  apparent KD of MS2 coat protein: 51.9 nM
[1]
  apparent KD of MS2 coat protein: 36.8 nM
Input ligand: none
  apparent KD of MS2 coat protein: 35.2 nM

## CCUUGACAUGAGGAUCACCCAUGUGAGGAUAUGAUGCGAUCGUCGAAAGACGAUAGCAUCAGAAGGCACAUAUG [Fiskers Ex 1 - 8] (puzzle: Exclusion 1)
[3]
  apparent KD of MS2 coat protein: 25.2 nM

## GUCAGCUCGUCAGGAUAUACAUCACUGCUUCGGCAGUGUAUUAAGAUCACAUGAGGAUCACCCAUGUAGAAGGGACGAGCUGAU [ENG2/2-B2] (Eterna round: R96, puzzle: Exclusion NG 2)
Input ligand: FMN 200 uM
  apparent KD of MS2 coat protein: 322 nM
[1]
  apparent KD of MS2 coat protein: 18.4 nM
Input ligand: none
  apparent KD of MS2 coat protein: 25.8 nM

## CCGAUAAUGUAGGAUAUCGUAUCGGAAACGAUACGAGAAGGGCAAACAUGAGGAUCACCCAUGUUCCUUAACGG [Mat - Exclusion 6 - Eli Mod - D72] (puzzle: Exclusion 6)
[3]
  apparent KD of MS2 coat protein: 15.8 nM

## GGAAAGGUAGGAUAUACGAAGAAAAAGGGUAGAAUAAUAACACAUGAGGAUCACCCAUGUAGAAGGACCAAAGG [Mat - Exclusion 2 - Mod of my Tesla design - D6] (puzzle: Exclusion 2)
[2]
  apparent KD of MS2 coat protein: 40.5 nM
[3]
  apparent KD of MS2 coat protein: 23.1 nM
[4]
  apparent KD of MS2 coat protein: 19.3 nM

## GAUGUGGGUUUCCGGAGUAACAUGAGGAUCACCCAUGUAGAAGUUGGAGGGAUCAAGCUUUUUGGUCGUCACACGUG [JR_SV3TOV1_Sub053] (puzzle: Sensor v3, turn-off variant 1)
[2]
  apparent KD of MS2 coat protein: 213 nM
[3]
  apparent KD of MS2 coat protein: 227 nM
[4]
  apparent KD of MS2 coat protein: 306 nM

## CCCGUGUAAGGAUAUCGUUCACUUGGCGAAAGUCGAGUGGACGAGAAGGUACAUGAGGAUCACCCAUGUACGGG [-36.1, -35.7 kcal, A 27%] (Eterna round: R97, puzzle: Exclusion 4)
Input ligand: FMN 200 uM
  apparent KD of MS2 coat protein: 438 nM
Input ligand: none
  apparent KD of MS2 coat protein: 305 nM

## UAUGGGUGUGUGAGGAUAUACGAAGGCAGUGGCCAGUAGAAGGUACAUGAGGAUCACCCAUGUGUCCAAAAGUG [Isonge] (puzzle: Brourd's mod of Exclusion 4)
[3]
  apparent KD of MS2 coat protein: 13.9 nM

## GAUGAGGUAGGAUAUACGAGAAGAUAGGGUAGAUAGAUAACACAUGAGGAUCACCCAUGUAGAAGGACCAGUAG [Mat - Exclusion 2 - Mod of my Tesla design - D72] (puzzle: Exclusion 2)
[3]
  apparent KD of MS2 coat protein: 32.5 nM

## CGCGAACAUGAGGAUCACCCAUGUGAGGAUAUCAUGCUUCGUAGUAAACUACGAAGUGUGAGAAGGCACAUGCG [Omei Ex1 D5] (Eterna round: R97, puzzle: Exclusion 1)
Input ligand: FMN 200 uM
  apparent KD of MS2 coat protein: 297 nM
Input ligand: none
  apparent KD of MS2 coat protein: 164 nM

## CCUAGUUGGUAAGGAUAUCCUACACUGUUCUGACCCGGGCAAGCUACAUGAGGAUCACCCAUGUGGGAGAAGGUGCGUCAACGC [Design 13] (Eterna round: R96, puzzle: Exclusion NG 2)
Input ligand: FMN 200 uM
  apparent KD of MS2 coat protein: 30.8 nM
[1]
  apparent KD of MS2 coat protein: 22.2 nM
Input ligand: none
  apparent KD of MS2 coat protein: 31.2 nM

## AGCCACAGAGGAUAUACAUACAUCCAGUAGUUGAGAAGACUACAUGAGGAUCACCCAUGUAGAAGGCUGUGGCA [Omei Ex2 BD B3] (Eterna round: R97, puzzle: Exclusion 2)
Input ligand: FMN 200 uM
  apparent KD of MS2 coat protein: 95.5 nM
Input ligand: none
  apparent KD of MS2 coat protein: 395 nM

## AAAACAAAAGGAUAUACAUGAGGAUCACCCAUGUGGCGAUAAAUCGCCGCUAAACCAUGUAGAAGGUUUGCGAA [EX3 A.2] (Eterna round: R97, puzzle: Exclusion 3)
Input ligand: FMN 200 uM
  apparent KD of MS2 coat protein: 102 nM
Input ligand: none
  apparent KD of MS2 coat protein: 42.6 nM

## GUCUGCACGCUGCGGUCCUACAUGAGGAUCACCCAUGUGGUCUGGUGGCGUGGGUCGCCGGACUUGGCUCGUCUUGG [salish99_S_TOV1_R5_048] (Eterna round: R97, puzzle: Sensor, turn-off variant 1)
Input ligand: FMN 200 uM
  apparent KD of MS2 coat protein: 14.8 nM
Input ligand: none
  apparent KD of MS2 coat protein: 14.7 nM

## UAUUAGCAAGCAAAUGGGUACAUGAGGAUCACCCAUGUGCUCGUCUUAUAAGGUACUGUGACGAACGUCACGGUACC [mod--Eli5] (Eterna round: R97, puzzle: Sensor, turn-off variant 1)
Input ligand: FMN 200 uM
  apparent KD of MS2 coat protein: 27.8 nM
Input ligand: none
  apparent KD of MS2 coat protein: 26.8 nM

## CCAAGAAUAGGAUAUACACCAUGUCAGCUUAUAUACAACGCACAUGAGGAUCACCCAUGUAGAAGGGUUCUCUC [Exclusion-2-#2] (Eterna round: R97, puzzle: Exclusion 2)
Input ligand: FMN 200 uM
  apparent KD of MS2 coat protein: 571 nM
Input ligand: none
  apparent KD of MS2 coat protein: 823 nM

## GUCGUGCGGCAGUGCUGUACGAGUACAUGAGGAUCACCCAUGUAGGAUAUGGUUCGUUUUGCGUGCUAGAAGGGCGUGCGUUUU [Excl-NG3-LRO18] (Eterna round: R96, puzzle: Exclusion NG 3)
Input ligand: FMN 200 uM
  apparent KD of MS2 coat protein: 18 nM
[1]
  apparent KD of MS2 coat protein: 15.8 nM
Input ligand: none
  apparent KD of MS2 coat protein: 24.8 nM

## UUCCUCACUUCUUUGUCUCACAUGAGGAUCACCCAUGUAAUAUAGGAUAUGCUUAGUAUUUUUAUGCAGAAGGAUAUUAGUUUU [JR_ExcNG3_Sub085] (Eterna round: R96, puzzle: Exclusion NG 3)
Input ligand: FMN 200 uM
  apparent KD of MS2 coat protein: 169 nM
[1]
  apparent KD of MS2 coat protein: 32.8 nM
Input ligand: none
  apparent KD of MS2 coat protein: 39.8 nM

## GCUGCGCGAGGAUAUGCGGUUUGUGCUUUGGCCCAUGGCGUACAUGAGGAUCACCCAUGUAGAAGGCGUGUGGG [Apr-15 SS2-52] (puzzle: Exclusion 2)
[3]
  apparent KD of MS2 coat protein: 12 nM

## AGCUGUGGCCGAGGAUAUCUGUCCCAUAAAACCGAAAUAUAAUCGGACAUGAGGAUCACCCAUGUAGAGAAGGCGGUCUCAGCA [Eli eng2 - 098] (Eterna round: R96, puzzle: Exclusion NG 2)
[1]
  apparent KD of MS2 coat protein: 31.3 nM
